Patent US8293529B2, “Method for inducing differentiation of pluripotent stem cells into cardiomyocytes” (Daiichi Sankyo Company, Limited, priority 2006, dated 2012)

B1: DAN: commercially available recombinant DAN protein (R&D systems), BMP antagonist (protein, UniProt P41271 17-181, looked up)
Neuroblastoma suppressor of …: AAPPPINKLALFPDKSAWCEAKNITQIVGHSGCEAKSIQNRACLGQCFSYSVPNTFPQSTESLVHCDSCMPAQSMWEIVTLECPGHEEVPRVDKLVEKILHCSCQACGKEPSHEGLSVYVQGEDGPGSQPGTHPHPHPHPHPGGQTPEPEDPPGAPHTEEEGAED
B2: WNT-1: commercially available recombinant human-derived WNT-1 protein (Peprotech), canonical Wnt (protein, listed as Mus musculus)
chain: MGLWALLPSWVSTTLLLALTALPAALAANSSGRWWGIVNIASSTNLLTDSKSLQLVLEPSLQLLSRKQRRLIRQNPGILHSVSGGLQSAVRECKWQFRNRRWNCPTAPGPHLFGKIVNRGCRETAFIFAITSAGVTHSVARSCSEGSIESCTCDYRRRGPGGPDWHWGGCSDNIDFGRLFGREFVDSGEKGRDLRFLMNLHNNEAGRTTVFSEMRQECKCHGMSGSCTVRTCWMRLPTLRAVGDVLRDRFDGASRVLYGNRGSNRASRAELLRLEPEDPAHKPPSPHDLVYFEKSPNFCTYSGRLGTAGTAGRACNSSSPALDGCELLCCGRGHRTRTQRVTERCNCTFHWCCHVSCRNCTHTRVLHECL
B3: Wnt-5a: commercially available recombinant mouse-derived Wnt-5a protein (R&D systems) (protein, listed as Mus musculus)
chain: MKKPIGILSPGVALGTAGGAMSSKFFLMALATFFSFAQVVIEANSWWSLGMNNPVQMSEVYIIGAQPLCSQLAGLSQGQKKLCHLYQDHMQYIGEGAKTGIKECQYQFRHRRWNCSTVDNTSVFGRVMQIGSRETAFTYAVSAAGVVNAMSRACREGELSTCGCSRARPKDLPRDWLWGGCGDNIDYGHPFAKEFVDARERERIHAKGSYESARILMNLHNNEAGRRTVYNLADVACKCHGVSGSCSLKTCWLQLADFRKVGDALKEKYDSAAAMRLNSRGKLVQVNSRFNSPTTQDLVYIDPSPDYCVRNESTGSLGTQGRLCNKTSEGMDGCELMCCGRGYDQFKTVQTERCHCKFHWCCYVKCKKCTEIVDQFVCK
B4: Chordin: commercially available recombinant Chordin protein (R&D systems), BMP antagonist (protein, UniProt Q9H2X0 27-955, looked up)
Chordin: AGPEPPVLPIRSEKEPLPVRGAAGCTFGGKVYALDETWHPDLGEPFGVMRCVLCACEAPQWGRRTRGPGRVSCKNIKPECPTPACGQPRQLPGHCCQTCPQERSSSERQPSGLSFEYPRDPEHRSYSDRGEPGAEERARGDGHTDFVALLTGPRSQAVARARVSLLRSSLRFSISYRRLDRPTRIRFSDSNGSVLFEHPAAPTQDGLVCGVWRAVPRLSLRLLRAEQLHVALVTLTHPSGEVWGPLIRHRALAAETFSAILTLEGPPQQGVGGITLLTLSDTEDSLHFLLLFRGLLEPRSGGLTQVPLRLQILHQGQLLRELQANVSAQEPGFAEVLPNLTVQEMDWLVLGELQMALEWAGRPGLRISGHIAARKSCDVLQSVLCGADALIPVQTGAAGSASLTLLGNGSLIYQVQVVGTSSEVVAMTLETKPQRRDQRTVLCHMAGLQPGGHTAVGICPGLGARGAHMLLQNELFLNVGTKDFPDGELRGHVAALPYCGHSARHDTLPVPLAGALVLPPVKSQAAGHAWLSLDTHCHLHYEVLLAGLGGSEQGTVTAHLLGPPGTPGPRRLLKGFYGSEAQGVVKDLEPELLRHLAKGMASLMITTKGSPRGELRGQVHIANQCEVGGLRLEAAGAEGVRALGAPDTASAAPPVVPGLPALAPAKPGGPGRPRDPNTCFFEGQQRPHGARWAPNYDPLCSLCTCQRRTVICDPVVCPPPSCPHPVQAPDQCCPVCPEKQDVRDLPGLPRSRDPGEGCYFDGDRSWRAAGTRWHPVVPPFGLIKCAVCTCKGGTGEVHCEKVQCPRLACAQPVRVNPTDCCKQCPVGSGAHPQLGDPMQADGPRGCRFAGQWFPESQSWHPSVPPFGEMSCITCRCGAGVPHCERDDCSLPLSCGSGKESRCCSRCTAHRRPAPETRTDPELEKEAEGS

Legend:
human ES cells = settings: rises from 15% without treatment; cited from earlier work
mouse ES cells [1] = assay: Wnt gene expression during induction of differentiation in ES cells (real-time PCR); format: cell-based; settings: BMP antagonist treatment 15 ng/mL, 3 days before and immediately after induction; 72 hours after induction of differentiation; vs untreated group
From the text: Various Wnt genes were studied for their expression during differentiation in mouse ES cells. For use in experiments, mouse ES cells were passaged and maintained in an undifferentiated state according to the methods as described in “Manipulating the Mouse Embryo: A Laboratory Manual” (Hogan et al., eds., Cold Spring Harbor Laboratory Press, 1994) and “Embryonic Stem Cells: Methods and Protocols” (Turksen ed., Humana Press, 2002) by using Knockout-DMEM (Invitrogen) medium containing 20% fetal bovine serum, 2 mmol/L L-glutamine and 0.1 mmol/L 2-mercaptoethanol (hereinafter referred to as ESM), supplemented with 1000 U/mL LIF (ESGRO; Chemicon). […]
The EBs thus prepared were collected periodically, and total RNA was prepared with an RNeasy mini kit (Qiagen), followed by DNase treatment. cDNA was synthesized from the DNase-treated total RNA (1 μg) using a SuperScript™ First-Strand Synthesis System for RT-PCR (Invitrogen). Analysis of gene expression was performed with an ABI PRISM 7700 (PE Applied Biosystems) by using a real-time polymerase chain reaction (PCR) quantification system with Lux primers to examine the expression level of each gene. The real-time PCR quantification was accomplished by using the above cDNA as a template and using Platinum Quantitative PCR SuperMix-UDG (Invitrogen) according to the instructions attached thereto. […]

mouse ES cells [2] = assay: Immunohistochemical staining of cardiomyocyte-specific marker proteins in EBs; format: cell-based; settings: EBs at 10 days after induction of differentiation
Procedure: Subsequently, immunohistochemical staining was performed to confirm that beating cells developed in EBs from the Wnt-treated groups produced cardiomyocyte-specific marker proteins. EBs in the Wnt-treated group (Wnt^48˜120h group) at 10 days after induction of differentiation were freshly embedded in a compound for preparing frozen sections (OCT Compound, Sakura Finetek USA Inc.) and then frozen with liquid nitrogen. The frozen samples were sectioned at 6 μm of thickness and attached on glass slides. These frozen sections were reacted with anti-sarcomeric myosin antibody (MF20; American Type Culture Collection), anti-GATA-4 antibody (C-20; Santa Cruz) or anti-Nkx-2.5 antibody (N-19; Santa Cruz) as a primary antibody and then reacted with a horseradish peroxidase-labeled secondary antibody (Bio-RAD), and finally subjected to a color reaction with ACE (3-amino-9-ethylcarbazole) substrate solution (Nichirei Corporation, Japan) and observed under an optical microscope.

mouse ES cells [3] = assay: Appearance rate of EBs exhibiting spontaneous beating; format: cell-based; settings: for occurrence of beating EBs: Wnt proteins added at 10 ng/mL to 50 ng/mL; for appearance rate of beating EBs: recombinant protein added at 1 ng/mL to 100 ng/mL
Procedure: Culture for inducing differentiation of ES cells into cardiomyocytes or neurons was accomplished in a routine manner as follows. ES cells were suspended in LIF-free medium, and the resulting suspension was seeded at 500 cells/50 μL per well of a commercially available 96-well culture plate for spheroid formation (Sumilon Celltight Spheroid; Sumitomo Bakelite Co., Ltd., Japan).
In the early stage of differentiation in ES cells, transient elevations in expression of various Wnt genes were observed prior to the appearance of cardiomyocytes. Then, ES cells at this stage were treated with recombinant Wnt proteins to study the myocardial differentiation-inducing effect of the proteins. Induction of ES cell differentiation was accomplished in the same manner as used in Example 1, except that some of the experimental groups were cultured in medium containing a commercially available recombinant WNT-1 (Peprotech), Wnt-3a (R&D systems) or Wnt-5a (R&D systems) protein. Treatment of ES cells in medium supplemented with a recombinant protein of canonical Wnt such as WNT-1 is hereinafter referred to as “Wnt treatment.”
The above canonical Wnt protein treatment is known to inhibit the action of GSK3β within cells and thereby promote stabilization of β-catenin and its transcription activation ability. Then, further studies were performed to confirm that treatment with various drugs capable of promoting stabilization of β-catenin and its transcription activation ability produced a myocardial differentiation-inducing effect on ES cells, as in the case of Wnt treatment. As drugs capable of promoting stabilization of β-catenin and its transcription activation ability, the following five commercially available compounds were used: GSK3β inhibitors BIO (Calbiochem), GSK3β inhibitor VII (Calbiochem), cell-permeable GSK3β peptide inhibitor (L803-mts; Calbiochem) and SB216763 (Biomol), as well as a Wnt agonist (Calbiochem) that promotes the transcription activation ability of β-catenin without GSK3β inhibition. ES cells were induced to differentiate in the same manner as used in the above Examples, and cultured in medium containing the above compounds during the time period between 48 and 120 hours ([…]) after induction of differentiation, as in the case of recombinant Wnt proteins.

cmES cells = assay: Immunohistochemical staining of marker proteins in EBs from cmES cells; format: cell-based, common marmoset; settings: EBs at 16 days after induction of differentiation
Procedure: Subsequently, immunohistochemical staining was performed in the same manner as used in Example 2 to confirm that beating cells developed in EBs from the Wnt-treated groups were cardiomyocytes producing specific marker proteins. From EBs in the Wnt-treated groups (Wnt-3a, WNT-1) at 16 days after induction of differentiation, frozen sections were prepared and reacted with anti-sarcomeric myosin antibody, anti-GATA-4 antibody or anti-Nkx-2.5 antibody as a primary antibody. After color reaction, these sections were observed under an optical microscope.

| Molecule | expression levels of the Wnt genes (Wnt-3, Wnt-3a, Wnt-8a) (mouse ES cells [1]) | occurrence of beating EBs (mouse ES cells [3]) | appearance rate of beating EBs (mouse ES cells [3]) | further results |
| --- | --- | --- | --- | --- |
| Nc1ncn([C@@H]2O[C@H](CO)[C@@H](O)[C@H]2O)c(=O)n1 [5-azacytidine] |  |  |  | percentage of troponin I-positive cells (candidate cardiomyocytes) in EBs (human ES cells): 44% |
| B1 | significantly higher than those of the untreated group |  |  | cells positive for sarcomeric myosin, Nkx-2.5 and GATA-4 (mouse ES cells [2]): the great majority of EB-constituting cells were found to be positive |
| B2 |  | very good occurrence of beating EBs | significantly higher than in the untreated group | cells positive for sarcomeric myosin, GATA-4 and Nkx-2.5 (cmES cells): the great majority of EB-constituting cells were found to be positive |
| B3 |  | very good occurrence of beating EBs | significantly higher than in the untreated group |  |
| B4 | significantly higher than those of the untreated group |  |  | regions of EBs exhibiting beating (mouse ES cells [3]; Wnt 48-96 h and 48-120 h groups, Chordin-treated EBs): beating throughout virtually all regions of their surface layer |
